Biological target: stabilized soluble SARS-CoV-2 S protein trimer (SARS-CoV-2) (UniProt P0DTC2)
Test: cryo-EM structure

monomeric soluble ACE2 (ACE2_(615)) (from UniProt Q9BYF1 18-615) (domain or fragment)
stoichiometry N (ACE2 per S trimer): 3

Reference: publication doi:10.1101/2020.09.18.301952
